Reference: IntAct's records for PubMed 26524528

B1: Lamin-B1 (Homo sapiens), P20700 (parent)
chain: MATATPVPPRMGSRAGGPTTPLSPTRLSRLQEKEELRELNDRLAVYIDKVRSLETENSALQLQVTEREEVRGRELTGLKALYETELADARRALDDTARERAKLQIELGKCKAEHDQLLLNYAKKESDLNGAQIKLREYEAALNSKDAALATALGDKKSLEGDLEDLKDQIAQLEASLAAAKKQLADETLLKVDLENRCQSLTEDLEFRKSMYEEEINETRRKHETRLVEVDSGRQIEYEYKLAQALHEMREQHDAQVRLYKEELEQTYHAKLENARLSSEMNTSTVNSAREELMESRMRIESLSSQLSNLQKESRACLERIQELEDLLAKEKDNSRRMLTDKEREMAEIRDQMQQQLNDYEQLLDVKLALDMEISAYRKLLEGEEERLKLSPSPSSRVTVSRASSSRSVRTTRGKRKRVDVEESEASSSVSISHSASATGNVCIEEIDVDGKFIRLKNTSEQDQPMGGWEMIRKIGDTSVSYKYTSRYVLKAGQTVTIWAANAGVTASPPTDLIWKNQNSWGTGEDVKVILKNSQGEEVAQRSTVFKTTIPEEEEEEEEAAGVVVEEELFHQQGTPRASNRSCAIM

Variants of: B1
Settings: with mlp3b_human MAP1LC3B

| Variant | effect of a mutation on the interaction |
| --- | --- |
| MATATPVPPRMGSRAGGPTTPLSPTRLSRLQEKEELRELNDRLAVYIDKVRSLETENSALQLQVTEREEVRGRELTGLKALYETELADARRALDDTARERAKLQIELGKCKAEHDQLLLNYAKKESDLNGAQIKLREYEAALNSKDAALATALGDKKSLEGDLEDLKDQIAQLEASLAAAKKQLADETLLKVDLENRCQSLTEDLEFRKSMYEEEINETRRKHETRLVEVDSGRQIEYEYKLAQALHEMREQHDAQVRLYKEELEQTYHAKLENARLSSEMNTSTVNSAREELMESRMRIESLSSQLSNLQKESRACLERIQELEDLLAKEKDNSRRMLTDKEREMAEIRDQMQQQLNDYEQLLDVKLALDMEISAYRKLLEGEEERLKLSPAPAAAATVSRASSSRSVRTTRGKRKRVDVEESEASSSVSISHSASATGNVCIEEIDVDGKFIRLKNTSEQDQPMGGWEMIRKIGDTSVSYKYTSRYVLKAGQTVTIWAANAGVTASPPTDLIWKNQNSWGTGEDVKVILKNSQGEEVAQRSTVFKTTIPEEEEEEEEAAGVVVEEELFHQQGTPRASNRSCAIM [S393A;S395A;S396A;R397A;V398A] | disrupting interaction strength |
| MATATPVPPRMGSRAGGPTTPLSPTRLSRLQEKEELRELNDRLAVYIDKVRSLETENSALQLQVTEREEVRGRELTGLKALYETELADARRALDDTARERAKLQIELGKCKAEHDQLLLNYAKKESDLNGAQIKLREYEAALNSKDAALATALGDKKSLEGDLEDLKDQIAQLEASLAAAKKQLADETLLKVDLENRCQSLTEDLEFRKSMYEEEINETRRKHETRLVEVDSGRQIEYEYKLAQALHEMREQHDAQVRLYKEELEQTYHAKLENARLSSEMNTSTVNSAREELMESRMRIESLSSQLSNLQKESRACLERIQELEDLLAKEKDNSRRMLTDKEREMAEIRDQMQQQLNDYEQLLDVKLALDMEISAYRKLLEGEEERLKLSPSPSAAVTVSRASSSRSVRTTRGKRKRVDVEESEASSSVSISHSASATGNVCIEEIDVDGKFIRLKNTSEQDQPMGGWEMIRKIGDTSVSYKYTSRYVLKAGQTVTIWAANAGVTASPPTDLIWKNQNSWGTGEDVKVILKNSQGEEVAQRSTVFKTTIPEEEEEEEEAAGVVVEEELFHQQGTPRASNRSCAIM [S396A;R397A] | decreasing interaction strength |
| MATATPVPPRMGSRAGGPTTPLSPTRLSRLQEKEELRELNDRLAVYIDKVRSLETENSALQLQVTEREEVRGRELTGLKALYETELADARRALDDTARERAKLQIELGKCKAEHDQLLLNYAKKESDLNGAQIKLREYEAALNSKDAALATALGDKKSLEGDLEDLKDQIAQLEASLAAAKKQLADETLLKVDLENRCQSLTEDLEFRKSMYEEEINETRRKHETRLVEVDSGRQIEYEYKLAQALHEMREQHDAQVRLYKEELEQTYHAKLENARLSSEMNTSTVNSAREELMESRMRIESLSSQLSNLQKESRACLERIQELEDLLAKEKDNSRRMLTDKEREMAEIRDQMQQQLNDYEQLLDVKLALDMEISAYRKLLEGEEERLKLSPSPAARVTVSRASSSRSVRTTRGKRKRVDVEESEASSSVSISHSASATGNVCIEEIDVDGKFIRLKNTSEQDQPMGGWEMIRKIGDTSVSYKYTSRYVLKAGQTVTIWAANAGVTASPPTDLIWKNQNSWGTGEDVKVILKNSQGEEVAQRSTVFKTTIPEEEEEEEEAAGVVVEEELFHQQGTPRASNRSCAIM [S395A;S396A] | decreasing interaction strength |
| MATATPVPPRMGSRAGGPTTPLSPTRLSRLQEKEELRELNDRLAVYIDKVRSLETENSALQLQVTEREEVRGRELTGLKALYETELADARRALDDTARERAKLQIELGKCKAEHDQLLLNYAKKESDLNGAQIKLREYEAALNSKDAALATALGDKKSLEGDLEDLKDQIAQLEASLAAAKKQLADETLLKVDLENRCQSLTEDLEFRKSMYEEEINETRRKHETRLVEVDSGRQIEYEYKLAQALHEMREQHDAQVRLYKEELEQTYHAKLENARLSSEMNTSTVNSAREELMESRMRIESLSSQLSNLQKESRACLERIQELEDLLAKEKDNSRRMLTDKEREMAEIRDQMQQQLNDYEQLLDVKLALDMEISAYRKLLEGEEERLKLSPAPAAAVTVSRASSSRSVRTTRGKRKRVDVEESEASSSVSISHSASATGNVCIEEIDVDGKFIRLKNTSEQDQPMGGWEMIRKIGDTSVSYKYTSRYVLKAGQTVTIWAANAGVTASPPTDLIWKNQNSWGTGEDVKVILKNSQGEEVAQRSTVFKTTIPEEEEEEEEAAGVVVEEELFHQQGTPRASNRSCAIM [S393A;S395A;S396A;R397A] | decreasing interaction strength |
| MATATPVPPRMGSRAGGPTTPLSPTRLSRLQEKEELRELNDRLAVYIDKVRSLETENSALQLQVTEREEVRGRELTGLKALYETELADARRALDDTARERAKLQIELGKCKAEHDQLLLNYAKKESDLNGAQIKLREYEAALNSKDAALATALGDKKSLEGDLEDLKDQIAQLEASLAAAKKQLADETLLKVDLENRCQSLTEDLEFRKSMYEEEINETRRKHETRLVEVDSGRQIEYEYKLAQALHEMREQHDAQVRLYKEELEQTYHAKLENARLSSEMNTSTVNSAREELMESRMRIESLSSQLSNLQKESRACLERIQELEDLLAKEKDNSRRMLTDKEREMAEIRDQMQQQLNDYEQLLDVKLALDMEISAYRKLLEGEEERLKLSPAPASRVTVSRASSSRSVRTTRGKRKRVDVEESEASSSVSISHSASATGNVCIEEIDVDGKFIRLKNTSEQDQPMGGWEMIRKIGDTSVSYKYTSRYVLKAGQTVTIWAANAGVTASPPTDLIWKNQNSWGTGEDVKVILKNSQGEEVAQRSTVFKTTIPEEEEEEEEAAGVVVEEELFHQQGTPRASNRSCAIM [S393A;S395A] | decreasing interaction strength |
| MATATPVPPRMGSRAGGPTTPLSPTRLSRLQEKEELRELNDRLAVYIDKVRSLETENSALQLQVTEREEVRGRELTGLKALYETELADARRALDDTARERAKLQIELGKCKAEHDQLLLNYAKKESDLNGAQIKLREYEAALNSKDAALATALGDKKSLEGDLEDLKDQIAQLEASLAAAKKQLADETLLKVDLENRCQSLTEDLEFRKSMYEEEINETRRKHETRLVEVDSGRQIEYEYKLAQALHEMREQHDAQVRLYKEELEQTYHAKLENARLSSEMNTSTVNSAREELMESRMRIESLSSQLSNLQKESRACLERIQELEDLLAKEKDNSRRMLTDKEREMAEIRDQMQQQLNDYEQLLDVKLALDMEISAYRKLLEGEEERLKLSPSPSSRATVSRASSSRSVRTTRGKRKRVDVEESEASSSVSISHSASATGNVCIEEIDVDGKFIRLKNTSEQDQPMGGWEMIRKIGDTSVSYKYTSRYVLKAGQTVTIWAANAGVTASPPTDLIWKNQNSWGTGEDVKVILKNSQGEEVAQRSTVFKTTIPEEEEEEEEAAGVVVEEELFHQQGTPRASNRSCAIM [V398A] | decreasing interaction strength |
